Results published in the supplement of paper PMC12042874.
± gives the uncertainty stated by the source.

Experiment: amyloid nucleation score (Sup35N fusion, yeast selection) (log enrichment); library NNK1; higher = more nucleation; inactive = no reads after selection
Summary of the method: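 Libraries of peptides of 20 random codons fused to Sup35N were expressed in psi-negative yeast and induced 24 hours with 100 μM copper sulfate. Selection was 7 days at 30°C on medium lacking adenine and uracil, and plasmid inserts were Illumina-sequenced before and after selection. Nucleation score is the DiMSum log enrichment of output over input reads, centred on the mode score of non-aggregating sequences, and sequences with under 100 input reads were left out.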

Substance	amyloid nucleation score
RFCISNARRRFLRPFGSYL	0.072 ± 1.1
VWVKAMSFFWVIALPHAVYV	inactive
SRFDMLSRALRCMK	1.35 ± 0.34
FRYSSDWWSYS	-0.834 ± 1.4
TCAGDNHDCDIYRNLLVAFS	1.19 ± 0.68
NIVSALRYITPYYLAAYPIT	0.025 ± 0.36
TRLLRVGRSNFSLNEHSDRI	-0.376 ± 0.9
TASIWNSRFFHNAGSLSGPF	-0.3 ± 1.1
PNMGREYKIGTGHYYEQFFH	-0.082 ± 0.17
NGFGAYVYNSYLRFGNLSRA	inactive
ICIREPTNESLAQLSDGVIR	2.06 ± 0.6
LLMLGLLSQH	0.427 ± 0.28
ILHYWVAVSMAQWICIGLKK	0.194 ± 0.45
RWYWIF	4.6 ± 0.069
CVLPFGLSSG	0.483 ± 0.48
RYHSMYTNSNTRGFGSSLQL	inactive
PTTEWKVVRT	0.808 ± 0.57
GWLLYDSPSRFTYC	-0.531 ± 0.37
DNNTVITIEQC	0.286 ± 1
SSPWRYSDATFCTAGGEGKS	-0.465 ± 0.62
FIESVL	1.14 ± 0.67
IVMVVMSSFGINEHPPDNQN	1.35 ± 0.27
TFTFNACELCVPGLMCKEWN	3.94 ± 0.096
NLGVVSIHDRHRYVAKVYSS	0.844 ± 0.5
YVFFCIHTVGTPLGNCSIDV	inactive

Substance	amyloid nucleation score
CLEVGFVCWNCNRLFKCLCQ	1.1 ± 0.56
CYRPFSQNLPSVMLEFILAE	0.146 ± 0.27
PILMFTVCMSDSQTVLNFCS	6.56 ± 0.047
SASAISTPGGCYDGYLFDSQ	-0.457 ± 0.61
KLAYKRSQMLTVVPRCSQGT	-0.39 ± 0.53
FGPMLHTLDLCWRGMWIS	-1.56 ± 2.7
KNVNAVR	0.173 ± 0.79
RWSILTIVSMGP	0.196 ± 1.2
FSSIIG	-0.528 ± 0.4
YWSVQG	0.647 ± 0.75
SAVVAVPVPYRDHQCPLPRV	1.13 ± 0.52
GKLSSLLMFCRNSLFVGFLG	-0.086 ± 0.35
FVCYSLNSSSFMIPYWILLK	-0.293 ± 0.46
PLMWS	0.251 ± 0.29
FVSSSKLIGCLVRHQKMANR	0.258 ± 0.59
VYILLRVRVWSFYVVVVSRF	0.484 ± 0.28
TRLRTYKCLQMGDYHVSSFK	0.672 ± 0.79
RLFVVEELESWGCFNWASIM	-1.7 ± 2.4
RLRSLDHWSWDAVMLMRAQL	0.432 ± 0.34
VNPFIFLNRNCAPILGWTCC	3.11 ± 0.11
VRIILWTMDVIFRLMFTRDQ	0.41 ± 0.51
RGNSFIRRY	0.285 ± 0.47
FWQIAGRGFGRYG	-0.258 ± 0.45
PIDGLPGASFGLGFQCGVGM	0.527 ± 0.76
VGWFFMYVPSSSAVFSKFLN	inactive

Substance	amyloid nucleation score
VMKELLMTHLLSCCLYSLCL	1.28 ± 0.34
FCVGYRCWMYN	-0.086 ± 0.25
MPLSILQLKTRFFKPSNDSR	5.42 ± 0.11
ADDGAVLCRCEAGGTSWSVC	inactive
GYFIVALRFSSLVEVNATSC	0.658 ± 0.77
RTGSAASG	-0.564 ± 0.38
LIEVWYVLIQGECDPWVTHG	1.07 ± 0.97
YKEQGTPHLLYADYEARRDG	0.791 ± 0.66
YRGTLDNKMGFYIGYHHDRS	-0.322 ± 0.56
IMVVFGITCVPASGNFLQGW	inactive
KMSNCWLF	-0.881 ± 0.55
VVLGCDVMLYRISFPFMIHS	-0.036 ± 0.47
SNQQLRWCECVYNGATGKVK	1.35 ± 0.47
RSPRGSVFHMFI	0.176 ± 1.6
VACLKRW	-0.29 ± 0.42
QWCDKVFL	-0.687 ± 0.4
FVGRCLNMKTCRRCLLSWDN	0.128 ± 1.6
NLDFLLFGIECIVKTCPFGY	0.01 ± 0.44
CGYCD	-1.69 ± 2.4
CVYVSMLH	-0.483 ± 0.85
WNRRGA	-0.054 ± 0.35
FLAVIGAPNRCDFGQSMLRM	3.51 ± 0.081
FCRHLGLSS	1.25 ± 0.44
ATYSLIFEPWPGPRLVPMQG	-0.12 ± 0.62
RSARIKNWSSLYLWMINSCV	0.469 ± 0.32

Substance	amyloid nucleation score
CITTVPHQPMVLWTICFPTM	0.614 ± 0.95
LTWLL	0.992 ± 0.97
FIGMTDPMSIDILLLSS	0.389 ± 0.58
IKVAN	1.1 ± 0.47
GDISYVSASLQLFNWVLSCV	3.97 ± 0.13
KEILVGLPMGGVRGCGSSSG	0.505 ± 1.2
AGDTGFTHTYSCWIKQWFVF	0.705 ± 0.47
RVMVFGRHNEDVSKFSISGK	4 ± 0.1
NVGYTYGYRKNSADNMAFCV	inactive
LQEVSWYSTVALTLSNLKWG	-0.389 ± 0.46
NFLIANRSLDAVLMVQLPFV	-0.344 ± 0.98
VVMRPIFYGNSWLVRPLRNM	-0.272 ± 0.45
GWHTQVMVVTSVSMLGVWT	0.487 ± 0.24
VKTNWLNWWLLNGLRASRCL	0.062 ± 0.58
FTFNYIATVSQLPGFGVIHS	0.343 ± 0.7
ILGAI	1.66 ± 0.58
TLNLWSAWLLFPYDLAGIFY	-0.199 ± 0.33
SRCHQRTYEVIAEYDLSKTE	0.223 ± 0.52
PPWPVNSDDPGHYETSSNFS	1.29 ± 0.73
ATRFIEESTL	-0.942 ± 0.68
LRKDGSGK	1.06 ± 0.21
LITWCIVVAWCIIVTREA	2.84 ± 0.12
CVVWAEVRVR	-0.419 ± 0.79
HKNEYSGFKRSKLLYRARMR	0.964 ± 0.68
KWRNLSS	0.631 ± 0.89

Substance	amyloid nucleation score
SDFAYCRCNLSVYRGMILTQ	0.064 ± 0.25
LAGIVCEWWFGWVGDVQLAF	-0.604 ± 0.85
RVDQVKSGFDMLYYPHWHQL	0.532 ± 0.37
LVAATP	0.898 ± 0.66
MEAWRHSTSACSDGA	-0.245 ± 0.39
DHFKKILGLCKSGCRVVERE	0.759 ± 0.41
RAPLLMSVTLLRHQFCTRME	1.8 ± 0.21
NLQVVYMSLV	2.99 ± 0.14
DVIMEGFAMCVWSRVTALLE	0.492 ± 0.85
VHSCFHFSNKGRLVWFPSFH	inactive
LCKFYPAFTGTTCTNLLSVW	0.321 ± 0.84
MLHHLSYVAVRWCKRTRKLC	0.405 ± 0.71
NNIVLDFLFGVSLHRFGPHH	4.43 ± 0.14
SDGASPFRWCFHSLRMVSAR	-0.647 ± 1.1
VCVWCKISPSTYCALIFGDL	-0.181 ± 0.32
LFTKNSIGGVFPCPPETARY	-1.18 ± 2.4
LRGVLMFMQVRDRADRGRSW	0.061 ± 0.47
ITSRVQFRETHTYIMYLEAW	0.138 ± 0.43
YYGFWICFNYVGTGVKISCA	3.38 ± 0.075
SDLCSLLASQRFLRRSGYKL	inactive
CTVLRRFIRYHTITVYMWL	0.257 ± 0.75
IAGIEGPI	-0.182 ± 1.3
NTKTNGTSIGNSTVVLHLIA	6.409 ± 0.057
HLAINNADTALGSYKGQVSV	2.36 ± 0.11
YLSHWQFAFIHLNANILL	0.596 ± 1.2

Substance	amyloid nucleation score
SQAETLYFYVCQVLRGQYYD	0.305 ± 0.32
GTGLSENRLSKYCWALLWSY	inactive
RFSWPWTDYNMKNYA	-0.119 ± 0.21
NNTDYLNCYTAICSSNTVAG	inactive
MAPEFCIEDKIRVVPFLIPI	0.197 ± 0.89
VNLFVLYPIYLFGSCSHNLM	7.373 ± 0.053
QNDVSGKLGNKLSSVCSLRR	0.405 ± 0.95
MPDYVVGYHGGWSCNLILRF	2.54 ± 0.19
CFGSSRVSCEYTDDRDDCGM	inactive
LNLTMVGIYINDFL	4.69 ± 0.099
FATYWVHDMAWRMSGVQMSV	0.307 ± 0.84
DNGVLQNNWVIMYCELHHGV	5.691 ± 0.052
VCILFSAPDNMWFFSD	1.49 ± 0.45
YLHWTQEDLRGNILGWSMWS	2.32 ± 0.16
WARESRIHTYVRVMFSGKWG	0.517 ± 0.54
WDWGMCTCRWRDSAASWGKR	0.432 ± 0.34
QSRSL	0.703 ± 0.66
LFEGEIIMK	inactive
FNMNHGMVSVRVEDRISRAC	0.579 ± 0.28
CAGWFRTFGAYKDAMARLAR	inactive
NDNLVDNQT	0.23 ± 0.75
VTLSLMCWNFALRFVSLGRS	4.02 ± 0.071
DMLSEIFGSSPNEYAPH	0.521 ± 0.29
SWLWSCSCLRVAMLTT	inactive
FLFRGV	-0.28 ± 0.91

Substance	amyloid nucleation score
LRVTSFMIMQLDLECPRCQI	-0.007 ± 0.46
ALNFTYLVSSNKHRSED	5.12 ± 0.1
FAGLSHWKPLDGTMGVGDRV	-0.526 ± 0.41
FVYCNAAIAISSFGTWEPKG	2.9 ± 0.1
EMSINLRNL	0.558 ± 0.16
NYMWSQPLLYFECGRDQWLA	2.92 ± 0.11
GCNMII	-0.34 ± 0.38
APSTDGMNMPTNGDRTPTLW	0.245 ± 0.42
KSLFNYCVFSDGL	7.281 ± 0.051
LLLDTLVCVVKHTNTCFSKW	0.503 ± 0.26
YWVCE	0.332 ± 0.9
SECSINRWF	0.965 ± 0.76
AVFWSNYCSMSCMSKTKKKS	0.159 ± 0.51
DLIYTDGLV	-0.743 ± 0.24
TCWHVSILN	0.136 ± 0.24
TNFANHRLGDPIMYSFHKGV	-0.74 ± 0.37
LGSMSTWVDRLRVANQVVVC	0.785 ± 0.77
LALHSNNQLFF	0.839 ± 0.81
IFTVTGNCTGGAHTQDVVWF	0.381 ± 0.77
CSGCYPRLCESMLNGNSGYV	1.31 ± 0.31
VEVATPLTGSLQLPASYIMP	inactive
